According to publication PMC4513855:

Tests used:
[1] = target: T1, VirE2 (co-expressed with VirE1);VirE1 (Agrobacterium tumefaciens (nopaline …, UniProt P08062;P08063 1-556;1-63, |)); test: SPRi
T1 sequence 1: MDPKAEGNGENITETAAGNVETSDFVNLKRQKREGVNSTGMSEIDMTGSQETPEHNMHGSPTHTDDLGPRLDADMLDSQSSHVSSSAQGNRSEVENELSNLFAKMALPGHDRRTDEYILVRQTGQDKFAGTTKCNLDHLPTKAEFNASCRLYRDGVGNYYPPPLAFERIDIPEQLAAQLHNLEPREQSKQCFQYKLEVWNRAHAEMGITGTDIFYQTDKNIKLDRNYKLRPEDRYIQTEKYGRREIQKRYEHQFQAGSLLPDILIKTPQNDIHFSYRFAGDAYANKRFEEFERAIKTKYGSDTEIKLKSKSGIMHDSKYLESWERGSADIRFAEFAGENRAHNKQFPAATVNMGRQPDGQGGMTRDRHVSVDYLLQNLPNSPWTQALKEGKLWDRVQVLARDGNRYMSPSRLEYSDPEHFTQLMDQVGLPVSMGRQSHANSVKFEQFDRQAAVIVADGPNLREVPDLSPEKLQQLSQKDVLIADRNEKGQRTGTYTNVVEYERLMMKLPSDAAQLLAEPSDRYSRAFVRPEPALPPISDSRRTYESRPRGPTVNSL
T1 sequence 2: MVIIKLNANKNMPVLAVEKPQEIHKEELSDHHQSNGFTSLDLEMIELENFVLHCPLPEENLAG

VirE2 = target: T2, VirE2 (Agrobacterium tumefaciens (nopaline …, UniProt P08062 1-556)); test: SPRi
T2 sequence: T1 sequence 1

B1: ssT40 (poly-T 40-mer) (ssDNA)
DNA: TTTTTTTTTTTTTTTTTTTTTTTTTTTTTTTTTTTTTTTT
modifications: 5' C6-thiol
binding result [1]: binds
binding result (VirE2): binds
